Data on 1 molecule can be found in patent US20170183403A1 (UNIVERSIT T Z RICH, published 2017).

One experiment concerns the target T1, Reference peptide no. 56.
T1 construct: second library: peptide 20 with L(92) to Ala; parental Cys replaced by Ser; also called peptide 56
T1 peptide: SLEEELKPLEEVLNA
Nature of the experiment: peptide microarray (RepliTope), 15-mers. As for the experimental part:
(§1) Additional incubations are with unrelated antibodies from the same isotype (mouse control IgG2a/lambda and mouse control IgG2a/kappa), and secondary antibodies (anti-mouse IgG (Thermo 84545, label DL650) or anti-mouse IgG (JIR 115-175-072, Label Cy5)) to assess unspecific binding due to the detection antibody. The experiments are performed essentially as described in Maksimov P, et al. 2012, PLoS One 7:e34212. doi:10.1371/journal. pone. 0034212.
(§2) The determination of peptide-antibody binding was performed by RepliTope-analysis where the peptide microarray (triplicate) was incubated with the primary antibody followed by a fluorescently labelled secondary antibody directed against the Fc-part of the primary one. All steps were performed on a TECAN microarray processing station enabling highly reliable and reproducible washing and incubation steps. After performing the incubation steps and subsequent to the final washing steps (to remove the unbound secondary antibodies) the microarrays were dried using a nitrogen stream and scanned in a high resolution microarray scanning system with appropriate wavelength settings. Control incubations were performed with an unrelated antibody having the same isotype to exclude false positive signals.
(§3) The resulting images were analyzed und quantified using spot-recognition software GenePix (Molecular Devices). For each spot, the mean signal intensity was extracted (between 0 and 65535 arbitrary units). For further data evaluation, the MMC2 values were determined. The MMC2 equals the mean value of all three instances on the microarray. Except the coefficient of variation (CV)—standard-deviation divided by the mean value—is larger 0.5, in this case the mean of the two closest values (MC2) is assigned to MMC2.

For the next experiment, the target named is T2, Reference peptide no. 8.
T2 construct: hIL-2 15-mer, first library, on microarray; also called peptide 8
T2 peptide: QMILNGINNYKNPKL
As to the kind of experiment: peptide microarray (RepliTope), 15-mers. As to the method:
as §1, §2, §3

Another experiment concerns the target T3, Reference peptide no. 45.
T3 construct: second library: peptide 13 with F(62) to Ala; also called peptide 45
T3 peptide: TRMLTAKFYMPKKAT
Nature of the experiment: peptide microarray (RepliTope), 15-mers. As for the experimental part:
as §1, §2, §3

In the next experiment the target is T4, Reference peptide no. 24.
T4 construct: hIL-2 15-mer, first library, on microarray; also called peptide 24
T4 peptide: LNLAQSKNFHLRPRD
Nature of the experiment: peptide microarray (RepliTope), 15-mers. As for the experimental part:
as §1, §2, §3

For the next experiment, the target named is T5, Reference peptide no. 22.
T5 construct: hIL-2 15-mer, first library, on microarray; also called peptide 22
T5 peptide: KPLEEVLNLAQSKNF
As to the kind of experiment: peptide microarray (RepliTope), 15-mers. As for the experimental part: as §1, §2, §3

Experiment [1] deals with T6, Reference peptide no. 11.
T6 construct: hIL-2 15-mer, first library, on microarray; also called peptide 11
T6 peptide: YKNPKLTRMLTFKFY
As to the kind of experiment: peptide microarray (RepliTope), 15-mers. As to the method: as §1, §2, §3

Experiment [2] concerns the target T7, Reference peptide no. 47.
T7 construct: second library: peptide 11 with Y(65) to Ala; also called peptide 47
T7 peptide: YKNPKLTRMLTFKFA
As to the kind of experiment: peptide microarray (RepliTope), 15-mers. As to the method:
as §1, §2, §3

For another experiment, the target named is T8, Reference peptide no. 25.
T8 construct: hIL-2 15-mer, first library, on microarray; also called peptide 25
T8 peptide: AQSKNFHLRPRDLIS
As to the kind of experiment: peptide microarray (RepliTope), 15-mers. As to the method: as §1, §2, §3

A further experiment addresses T9, Reference peptide no. 28.
T9 construct: hIL-2 15-mer, first library, on microarray; also called peptide 28
T9 peptide: PRDLISNINVIVLEL
As to the kind of experiment: peptide microarray (RepliTope), 15-mers. As to the method: as §1, §2, §3

Another experiment concerns the target T10, Reference peptide no. 5.
T10 construct: hIL-2 15-mer, first library, on microarray; also called peptide 5
T10 peptide: QLEHLLLDLQMILNG
Nature of the experiment: peptide microarray (RepliTope), 15-mers. As for the experimental part:
as §1, §2, §3

The target of another experiment is T11, Reference peptide no. 15.
T11 construct: hIL-2 15-mer, first library, on microarray; also called peptide 15
T11 peptide: KFYMPKKATELKHLQ
As to the kind of experiment: peptide microarray (RepliTope), 15-mers. As to the method: as §1, §2, §3

A further experiment has as its target T12, Reference peptide no. 20.
T12 construct: hIL-2 15-mer, first library, parental Cys replaced by Ser, on microarray; also called peptide 20
T12 peptide: SLEEELKPLEEVLNL
As to the kind of experiment: peptide microarray (RepliTope), 15-mers. As to the method:
as §1, §2, §3

A further experiment concerns the target T13, Reference peptide no. 35.
T13 construct: hIL-2 15-mer, first library, parental Cys replaced by Ser, on microarray; also called peptide 35
T13 peptide: FMSEYADETATIVEF
As to the kind of experiment: peptide microarray (RepliTope), 15-mers. As for the experimental part: as §1, §2, §3

A further experiment concerns the target T14, Reference peptide no. 34.
T14 construct: hIL-2 15-mer, first library, parental Cys replaced by Ser, on microarray; also called peptide 34
T14 peptide: ETTFMSEYADETATI
As to the kind of experiment: peptide microarray (RepliTope), 15-mers. As for the experimental part:
as §1, §2, §3

Another experiment has as its target T15, Reference peptide no. 17.
T15 construct: hIL-2 15-mer, first library, parental Cys replaced by Ser, on microarray; also called peptide 17
T15 peptide: KATELKHLQSLEEEL
Nature of the experiment: peptide microarray (RepliTope), 15-mers. As for the experimental part:
as §1, §2, §3

The next experiment has as its target T16, Reference peptide no. 52.
T16 construct: second library: peptide 11 with F(62) and Y(65) to Ala; also called peptide 52
T16 peptide: YKNPKLTRMLTAKFA
As to the kind of experiment: peptide microarray (RepliTope), Ala mutagenesis set.

In another experiment the target is T17, Reference peptide no. 43.
T17 construct: second library: peptide 11 with F(62) to Ala; also called peptide 43
T17 peptide: YKNPKLTRMLTAKFY
The description is as above.

In experiment [3] the target is T6, Reference peptide no. 11. The description is as above.
In experiment [4] the target is T7, Reference peptide no. 47. The description is as above.
Another experiment addresses T18, Reference peptide no. 49.
T18 construct: second library: peptide 13 with Y(65) to Ala; also called peptide 49
T18 peptide: TRMLTFKFAMPKKAT
The experiment is described as above.

The target of the next experiment is T19, Reference peptide no. 44.
T19 construct: second library: peptide 12 with F(62) to Ala; also called peptide 44
T19 peptide: PKLTRMLTAKFYMPK
Described as above.

A further experiment deals with T20, Reference peptide no. 12.
T20 construct: hIL-2 15-mer, first library, on microarray; also called peptide 12
T20 peptide: PKLTRMLTFKFYMPK
Described as above.

For another experiment, the target named is T21, Reference peptide no. 42.
T21 construct: second library: peptide 10 with F(62) to Ala; also called peptide 42
T21 peptide: INNYKNPKLTRMLTA
The description is as above.

For another experiment, the target named is T22, Reference peptide no. 13.
T22 construct: hIL-2 15-mer, first library, on microarray; also called peptide 13
T22 peptide: TRMLTFKFYMPKKAT
The description is as above.

B1: NARA1 (antibody, mouse IgG2a, kappa, V domains shown)
VH: QVQLQQSGAELVRPGTSVKVSCKASGYAFTNYLIEWVKQRPGQGLEWIGVINPGSGGTNYNEKFKGKATLTADKSSSTAYMQLSSLTSDDSAVYFCARWRGDGYYAYFDVWGAGTTVTVSS
VL: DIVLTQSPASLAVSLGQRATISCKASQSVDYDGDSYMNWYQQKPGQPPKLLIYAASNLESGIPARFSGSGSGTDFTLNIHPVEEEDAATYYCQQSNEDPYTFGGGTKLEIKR
notes: Mouse monoclonal from hybridoma; Isotype controls used were mouse IgG2a; also called anti-IL2 (NARA1) antibody; monoclonal antibody NARA1
In the case of B1, the binding result with Reference peptide no. 56, with Reference peptide no. 8, in the experiment with Reference peptide no. 45, with Reference peptide no. 24, with Reference peptide no. 22 and with Reference peptide no. 11 [1] was “no binding” throughout. For the same molecule, the binding result in the experiment with Reference peptide no. 47 [2], in the experiment with Reference peptide no. 25, in the experiment with Reference peptide no. 28, with Reference peptide no. 5, with Reference peptide no. 15 and in the experiment with Reference peptide no. 20 was “no binding” each time. Besides, the binding result with Reference peptide no. 35, with Reference peptide no. 34 and in the experiment with Reference peptide no. 17 was “no binding” each time. Further, the “signal intensity after subtraction of control signal” value with Reference peptide no. 52 was found to be 238 AU; with Reference peptide no. 43, 507 AU; with Reference peptide no. 11 [3] it was 1190 AU; with Reference peptide no. 47 [4], 251 AU; with Reference peptide no. 49 it was 1490 AU; with Reference peptide no. 44, 432 AU. Further, the “signal intensity after subtraction of control signal” value was 1130 AU in the experiment with Reference peptide no. 12, 162 AU in the experiment with Reference peptide no. 42 and 224 AU with Reference peptide no. 13.
